Test results: PMC7083845

Key:
[1] = molecular target: Cub fusion of mature GENOMES UNCOUPLED 4 (GUN4) (Arabidopsis thaliana) (UniProt Q9LX31)
[2] = molecular target: Cub fusion of mature GENOMES UNCOUPLED 4 (GUN4) (Arabidopsis thaliana) (UniProt Q9LX31); remark: listed apart in the source

Chain of UniProt Q9LX31 (Q9LX31 70-265): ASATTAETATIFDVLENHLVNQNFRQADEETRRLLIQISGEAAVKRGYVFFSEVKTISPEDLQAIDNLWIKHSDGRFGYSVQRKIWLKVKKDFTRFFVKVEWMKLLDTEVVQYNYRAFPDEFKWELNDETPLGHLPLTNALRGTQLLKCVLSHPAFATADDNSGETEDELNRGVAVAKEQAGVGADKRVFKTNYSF

Q: Which in vitro MgCh activity in 0.15 mM β-DM: 1 μM purified His-BCM1 against assays without BCM1 or with 1 μM GST [1] does the source give for “NubG-BCM1 (mature BALANCE of CHLOROPHYLL METABOLISM 1) (natural protein)” here?
A: 3 fold

Q: What about the in vitro MgCh activity with His-GUN4 and the three MgCh subunits: yeast membranes holding His-BCM1 against control membranes without BCM1 [1] of the same substance?
A: 12%

Q: What about the in vitro MgCh activity (MgP formed, HPLC) of recombinant MgCh subunits with His-GUN4: thylakoids from BCM1-OX3/gun4-1 against thylakoids from bcm1-3 gun4-1 seedlings [2] of the same substance?
A: 12%
